The source of these data is US6846803B1, “Antagonists specific for the corticotropin-releasing factor receptor type 2 (CRFR2)” (priority 1998, dated 2005).

One assay concerns the target T1, rCRFR1 (Rattus norvegicus, UniProt P35353).
T1 construct: expressed in transfected cells; host or cells: HEK 293 cells, stably transfected (HEK-rCRFR1)
T1 sequence (P35353 24-415): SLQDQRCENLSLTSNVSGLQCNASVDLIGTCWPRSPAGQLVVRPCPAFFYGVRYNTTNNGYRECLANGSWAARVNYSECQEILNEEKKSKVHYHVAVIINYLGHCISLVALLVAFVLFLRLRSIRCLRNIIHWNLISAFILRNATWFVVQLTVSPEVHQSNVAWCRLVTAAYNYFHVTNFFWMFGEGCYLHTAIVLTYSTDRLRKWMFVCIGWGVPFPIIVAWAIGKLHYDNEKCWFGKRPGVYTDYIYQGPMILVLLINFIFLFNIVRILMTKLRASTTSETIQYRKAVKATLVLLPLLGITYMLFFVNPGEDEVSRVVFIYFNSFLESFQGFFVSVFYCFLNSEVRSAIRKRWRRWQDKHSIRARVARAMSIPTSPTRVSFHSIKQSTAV
The assay can be described thus: cAMP stimulation / inhibition of oCRF-stimulated cAMP production in HEK-rCRFR1 cells. The following applies: HEK-rCRFR1 cells; difference significant. Type of assay: cell-based. The essentials:
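HEK cells expressing rat CRFR1 or mouse CRFR2β were treated with CRF agonists, with or without antagonist at 1 μM or 10 nM, or with antagonist (1 μM) alone. Cells were lysed in 6% TCA (5 min, 100° C.), and cAMP was measured by RIA.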
On the technique in general: Changes in cAMP serve as a functional read-out for many G protein-coupled receptors.

In a further assay the target is T2, CRFR2α (Mus musculus, UniProt Q60748).
T2 construct: from tissue; host or cells: lateral septum of BALB/c mice, in vivo
The following applies: BALB/c mice; brain area exclusively expressing CRF2α-mRNA; cited from earlier work.

The target of assay [1] is mouse CRF receptor, type 2β (mCRFR2β) (mouse) (UniProt Q60748). As to the kind of experiment: Kd(rCRFR1)/Kd(mCRFR2β) of the peptide normalised to that of astressin; radioligand displacement. A general note: Loss of bound radioactivity is the signal in a displacement assay; it reports binding, not function.
The target in assay [2] is T3, rat CRF receptor, type 1 (rCRFR1) (rat, UniProt P35353 24-415).
T3 construct: whole, on cells; cAMP assays on the whole cells; also called HEK-rCRFR1 cells
T3 sequence (looked up): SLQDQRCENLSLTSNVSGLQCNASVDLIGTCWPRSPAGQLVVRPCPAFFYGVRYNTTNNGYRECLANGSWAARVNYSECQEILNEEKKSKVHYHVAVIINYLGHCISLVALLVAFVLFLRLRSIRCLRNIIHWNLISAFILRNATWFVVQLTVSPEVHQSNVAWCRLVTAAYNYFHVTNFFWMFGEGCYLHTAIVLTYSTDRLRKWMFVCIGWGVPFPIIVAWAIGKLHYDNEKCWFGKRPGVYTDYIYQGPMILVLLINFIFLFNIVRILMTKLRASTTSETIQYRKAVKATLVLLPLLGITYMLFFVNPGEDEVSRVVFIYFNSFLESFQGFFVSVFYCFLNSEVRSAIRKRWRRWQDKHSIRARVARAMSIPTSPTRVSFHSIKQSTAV
As to the kind of experiment: radioligand displacement; this end of the range tied by the Kd ratio of Table 3 (220.9/153.6). As to the method:
(§1) Binding assays were performed in 96-well MultiScreen plates (Millipore, Eschborn, Germany) with GF/B filters (pore size 1.0 μm). […] After incubation (60 min, 23° C.), membrane suspension was aspirated through the plate, followed by two washes with assay buffer (0.2 ml, 23°). Radioactivity of the punched filters was measured with a 1470 WIZARD automatic gamma counter (Berthold, Hannover). […] Statistical analysis was performed with ANOVA, and significant differences between groups were determined by post hoc comparison using the Dunn test.

Assay [3] has as its target T3, rat CRF receptor, type 1 (rCRFR1). As to the kind of experiment: displacement of [125I-Tyr0]oCRF from HEK-rCRFR1 membranes. The procedure: as §1
Assay [4] has the same target. As to the kind of experiment: cell-based or functional assay.
Assay [5] concerns the target mouse CRF receptor, type 2β (mCRFR2β) (mouse) (UniProt Q60748). The assay can be described thus: radioligand displacement; this end of the range tied by the Kd ratio of Table 3 (20.8/3.5).
Assay [6] has the same target. The assay can be described thus: radioligand binding to membranes of HEK-mCRFR2β cells, displaced by Svg.
The target in assay [7] is T3, rat CRF receptor, type 1 (rCRFR1). The assay can be described thus: cell-based or functional assay. This is another data set of the same source.
The target is the same in assay [8]. As to the kind of experiment: cell-based or functional assay. This is another data set of the same source.

In general, Kd refers to the concentration at which binding is half-saturated. Higher therefore signals lower affinity.

No end group written: not given here.

T2 sequence (Q60748 whole entry): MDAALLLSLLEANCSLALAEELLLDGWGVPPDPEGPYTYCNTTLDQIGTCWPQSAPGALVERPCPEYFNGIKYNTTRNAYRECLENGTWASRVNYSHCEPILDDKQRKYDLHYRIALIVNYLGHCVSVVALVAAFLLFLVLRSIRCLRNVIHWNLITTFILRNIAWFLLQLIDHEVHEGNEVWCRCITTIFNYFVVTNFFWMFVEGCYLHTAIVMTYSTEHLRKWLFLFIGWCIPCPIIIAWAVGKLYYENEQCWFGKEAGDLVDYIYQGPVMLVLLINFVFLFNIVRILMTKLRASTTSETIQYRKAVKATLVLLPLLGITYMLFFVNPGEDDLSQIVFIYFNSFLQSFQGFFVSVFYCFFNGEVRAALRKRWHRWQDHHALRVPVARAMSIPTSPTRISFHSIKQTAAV

Take `CC[C@H](C)[C@H](NC(=O)[C@@H](NC(=O)[C@H](CC(=O)O)NC(=O)[C@H](CC(C)C)NC(=O)[C@H](CC(C)C)NC(=O)[C@H](CC(C)C)NC(=O)[C@H](CCCNC(=N)N)NC(=O)[C@H](CC(N)=O)NC(=O)[C@H](CC(N)=O)NC(=O)[C@H](C)NC(=O)[C@H](C)NC(=O)[C@H](CCC(N)=O)NC(=O)[C@H](CCC(N)=O)NC(=O)[C@H](CCCCN)NC(=O)[C@H](CCC(=O)O)NC(=O)[C@H](CCCCN)NC(=O)[C@H](CCC(=O)O)NC(=O)[C@H](CCC(N)=O)NC(=O)[C@H](CCCCN)NC(=O)[C@H](CCC(=O)O)NC(=O)[C@@H](NC(=O)[C@H](CCC(=O)O)NC(=O)[C@@H](NC(=O)[C@H](CCSC)NC(=O)[C@H](CCCCN)NC(=O)[C@H](CCCNC(=N)N)NC(=O)[C@H](CC(C)C)NC(=O)[C@H](CC(C)C)NC(=O)[C@H](Cc1c[nH]cn1)NC(=O)[C@H](N)Cc1ccccc1)[C@@H](C)CC)[C@@H](C)CC)[C@@H](C)O)C(N)=O` [[DPhe^11, His^12]Svg(11-40)]: the “inhibitory potency towards rCRFR1” value against rCRFR1 is recorded as 15 % of the potency of astressin. Besides, on CRFR2α, the “CRF-mediated behavioral effects in the lateral septum” value was “inhibited”.
YHLLRKMIEIEKQEKEKQQAANNRLLLDTI (ends and bridges not checked, also called compound 18) [[Tyr^11, His^12]Svg(11-40)] returned a Selectivity in assay [1] of 31.6. The “fold decrease of binding affinity against antisauvagine-30 (compound 11)” value in [2] was 1.4 to 5.9 fold. In [3], this molecule came in with a Kd of 221 nM. In assay [4], the “rel. IA (relative intrinsic activity), cAMP production, HEK-rCRFR1 cells” value (shortened to “rel. IA (relative intrinsic activity)”) is 0.03 relative, oCRF = 1.00 and the “rel. pot. (relative potency), inhibition of oCRF-stimulated cAMP production, HEK-rCRFR1 cells” value is 0.79 relative, oCRF = 1.00.
As for YELLRKMIEIEKQEKEKQQAANNRLLLDTI (ends and bridges not checked, also called compound 19) [[Tyr^11]Svg(11-40)], in assay [1], the Selectivity is 33. In [3], this molecule displayed a Kd of 977 nM. Also, the fold decrease of binding affinity against [DPhe^11]Svg(11-40) (compound 12) in [5] lay in the range of 1.4 to 5.9 fold. In addition, in [4], the “rel. IA (relative intrinsic activity)” value is 0.09 relative, oCRF = 1.00 and the “rel. pot. (relative potency), inhibition of oCRF-stimulated cAMP production, HEK-rCRFR1 cells” value is 0.82 relative, oCRF = 1.00.
For YZGPPISIDLSLELLRKMIEIEKQEKEKQQAANNRLLLDTI (125I-iodinated Tyr at position 0) [[^125I-Tyr^0]Svg], the specific binding in assay [6] worked out at 94%.

B1: ovine corticotropin-releasing factor (oCRF) (peptide)
peptide: SQEPPISLDLTFHLLREVLEMTKADQLAQQAHSNRKLLDIA
modifications: ends and bridges not checked
notes: Synthetic peptide (Fmoc chemistry on TentaGel S RAM resin); also called compound 1
Take B1: the “% IA (intrinsic activity), cAMP production, HEK-rCRFR1 cells” value in assay [7] was 1 relative, oCRF = 1.00. The “EC50, cAMP accumulation in HEK-rCRFR1 cells” value in assay [8] worked out at 0.41 nM. The Selectivity in [1] worked out at 0.002. In addition, the “rel. IA (relative intrinsic activity)” value in assay [4] was 1 relative, oCRF = 1.00.
